As a reminder, the stoichiometry N is a count of units in the complex or per binding partner. As a reminder, the Kd is the concentration at which binding is half-saturated. Read a low Kd as tighter binding.

To fix the notation:
B1: human IFIT3 (natural protein, UniProt O14879 1-490, looked up)
chain: MSEVTKNSLEKILPQLKCHFTWNLFKEDSVSRDLEDRVCNQIEFLNTEFKATMYNLLAYIKHLDGNNEAALECLRQAEELIQQEHADQAEIRSLVTWGNYAWVYYHLGRLSDAQIYVDKVKQTCKKFSNPYSIEYSELDCEEGWTQLKCGRNERAKVCFEKALEEKPNNPEFSSGLAIAMYHLDNHPEKQFSTDVLKQAIELSPDNQYVKVLLGLKLQKMNKEAEGEQFVEEALEKSPCQTDVLRSAAKFYRRKGDLDKAIELFQRVLESTPNNGYLYHQIGCCYKAKVRQMQNTGESEASGNKEMIEALKQYAMDYSNKALEKGLNPLNAYSDLAEFLETECYQTPFNKEVPDAEKQQSHQRYCNLQKYNGKSEDTAVQHGLEGLSISKKSTDKEEIKDQPQNVSENLLPQNAPNYWYLQGLIHKQNGDLLQAAKCYEKELGRLLRDAPSGIGSIFLSASELEDGSEEMGQGAVSSSPRELLSNSEQLN
B5: human IFIT1 (natural protein, UniProt P09914-1 1-478, looked up)
chain: MSTNGDDHQVKDSLEQLRCHFTWELSIDDDEMPDLENRVLDQIEFLDTKYSVGIHNLLAYVKHLKGQNEEALKSLKEAENLMQEEHDNQANVRSLVTWGNFAWMYYHMGRLAEAQTYLDKVENICKKLSNPFRYRMECPEIDCEEGWALLKCGGKNYERAKACFEKVLEVDPENPESSAGYAISAYRLDGFKLATKNHKPFSLLPLRQAVRLNPDNGYIKVLLALKLQDEGQEAEGEKYIEEALANMSSQTYVFRYAAKFYRRKGSVDKALELLKKALQETPTSVLLHHQIGLCYKAQMIQIKEATKGQPRGQNREKLDKMIRSAIFHFESAVEKKPTFEVAHLDLARMYIEAGNHRKAEENFQKLLCMKPVVEETMQDIHFHYGRFQEFQKKSDVNAIIHYLKAIKIEQASLTRDKSINSLKKLVLRKLRRKALDLESLSLLGFVYKLEGNMNEALEYYERALRLAADFENSVRQGP

In the experiment “human IFIT1” the target is B5. The experiment in a line: ITC.
In experiment [1] the target is T1, maltose binding protein (MBP)-tagged IFIT1 (human, UniProt P09914-1 1-478).
T1 sequence (looked up): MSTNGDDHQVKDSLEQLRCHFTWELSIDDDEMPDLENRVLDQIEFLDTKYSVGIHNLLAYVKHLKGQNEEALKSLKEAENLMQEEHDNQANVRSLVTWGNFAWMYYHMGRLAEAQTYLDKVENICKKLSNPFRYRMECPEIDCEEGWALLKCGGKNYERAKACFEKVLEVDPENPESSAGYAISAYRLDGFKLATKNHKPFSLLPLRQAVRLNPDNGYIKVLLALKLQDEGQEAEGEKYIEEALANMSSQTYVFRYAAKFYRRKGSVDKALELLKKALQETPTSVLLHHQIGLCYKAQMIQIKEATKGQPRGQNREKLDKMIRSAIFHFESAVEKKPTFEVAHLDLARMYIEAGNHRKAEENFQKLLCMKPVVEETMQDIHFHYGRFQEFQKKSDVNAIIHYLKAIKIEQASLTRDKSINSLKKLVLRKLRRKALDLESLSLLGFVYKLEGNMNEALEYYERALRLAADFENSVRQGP
The experiment is described as follows: pull-down.

The target of the experiment “human IFIT3” is B1. The experiment is described as follows: ITC. (In general: Isothermal titration calorimetry measures the heat released or taken up as one component is titrated into another.)

As to B1, in the experiment with human IFIT1, the dH was -13 kcal/mol and the “stoichiometry N” value stood at 0.93 ± 0.01.

B2: chimeric construct Ifit3-IFIT3CTD (other, mouse | human, UniProt Q64345 1-403, looked up)
chain: MSEVNRESLEAILPQLKCHFTWNLFREGSMSSHMEDRVCNQVEHLNSEEKATMYDLLAYIKHLDGESKAALECLGQAEDLRKSEHNDQSEIRRLVTWGNYAWIYYHMGRLSEAQAYVDKVRQVCQKFANPYSMECPELECEEGWTRLKCGRNERAKMCFEKALEEKPKDPECSSGMAIAMFRLEEKPEKQFSVDALKQAMELNPQNQYLKVLLALKLLRMGEEAEGERLIKDALGKAPNQTDVLQKAAQFYKKKGNLDRAIELLGKALRSTVNNSPLYSLVMCRYREILEQLQNKGDADSSERRQRMAELRRLTMEFMQKTLQRRRSPLNSYSDLIDFPEVERCYQMVISKESPDVEEEDLYERYCNLQEYHRKSEDLAALECLLQFPRNERSIEKEEVKEQTQNVSENLLPQNAPNYWYLQGLIHKQNGDLLQAAKCYEKELGRLLRDAPSGIGSIFLSASELEDGSEEMGQGAVSSSPRELLSNSEQLN
Turning to B2, in experiment [1], the binding result is listed as “binds”.

B3: IFIT3 403–490 (IFIT3CTD) (domain or fragment, human, UniProt O14879 403-490, looked up)
chain: QNVSENLLPQNAPNYWYLQGLIHKQNGDLLQAAKCYEKELGRLLRDAPSGIGSIFLSASELEDGSEEMGQGAVSSSPRELLSNSEQLN
Turning to B3, in the experiment with human IFIT1, the Kd amounted to 1.4 ± 3.1 nM, the dH was -17 kcal/mol and the “stoichiometry N” value is 0.97 ± 0.03.

B4: IFIT1 RNA binding mutant (R38A and K151A) (natural protein, human, UniProt P09914-1 1-478, looked up)
chain: MSTNGDDHQVKDSLEQLRCHFTWELSIDDDEMPDLENAVLDQIEFLDTKYSVGIHNLLAYVKHLKGQNEEALKSLKEAENLMQEEHDNQANVRSLVTWGNFAWMYYHMGRLAEAQTYLDKVENICKKLSNPFRYRMECPEIDCEEGWALLACGGKNYERAKACFEKVLEVDPENPESSAGYAISAYRLDGFKLATKNHKPFSLLPLRQAVRLNPDNGYIKVLLALKLQDEGQEAEGEKYIEEALANMSSQTYVFRYAAKFYRRKGSVDKALELLKKALQETPTSVLLHHQIGLCYKAQMIQIKEATKGQPRGQNREKLDKMIRSAIFHFESAVEKKPTFEVAHLDLARMYIEAGNHRKAEENFQKLLCMKPVVEETMQDIHFHYGRFQEFQKKSDVNAIIHYLKAIKIEQASLTRDKSINSLKKLVLRKLRRKALDLESLSLLGFVYKLEGNMNEALEYYERALRLAADFENSVRQGP
In the experiment with human IFIT3, B4 yielded a Kd of 2.1 ± 6 nM.

For B5, the Kd in the experiment with human IFIT3 is 1.5 ± 2 nM.

The record behind these values is PMC6251713 (Immunity, 2018).
